Results published in a protein production outcome set (Wang et al. 2014).

assay: label from the status in PepcDB records

| Sequence | protein production |
| --- | --- |
| MRNIAVILAGGSGQRLGENIPKQFLKIAGKKVIEHTITVFQNHSLIDEIVVVVHPDYIRDVEDISLRNSFNKLKKILLGGKERYHSSLAAINAYDEEVNLLFHDSVRPLVNERIINDCIRALLTYNAVDVAIPTTDTIIQVDDNNEIVKIPSRILLRNGQTPQAFKRSVIKAAYEKALLDPLFKTTDDCGVVLKYLPDESIYVVNGEQFNMKLTYKEDIFLLDKLFQLRSIRNQPTLLEKSEMEELQGKVVVVFGGTYGIGQDICEICREYKTSLYVYSRSTGVDVSNSQSVRRVLSEIFDKEGRIDWIVNTAGILDKQPLANMSYEAVHQSIDVNYLGNIIVAKESFFYLKESKGSLLFFTSSSYTRGRALYSLYSSSKAAIVNFVQALSEEWFEYGIRVNCINPERTKTPMRIQNFGNEPEDTLLEPKVVAIVSVNTLLSEMTGEVVDVKRLEHHHHHH | failed |
| MRNLRKDIVSRSSVGSIQIHGAKTHNLRDVTVCIPKHALVGVAGVSGSGKTSLVSTLAVGAQQAVSSLFPAFVQARLNTLEPGLVDGLQGLTFTAIVGQKKFSRNARSSVSTASGIAPYLRLLFSRSGSPSAGYSPSYSPNDPRGMCMDCSGLGYVDDIDLQELIAPDRSLNEGAVRFPSFEPGTYRWKRLVCSGLFDPDVPWKELPEASRKLLLHGQGVRLERPLTGYPKHGIFDGIIPRLKASYLEKANAKTTEKEDAALRRIVKRVVCPHCHGQRINEAARASRIEGLNIAEASHLSIDECIAFIKTITDEITEAPRQAVLARLNNMRDIGLGYLSLDRPTDTLSGGEAQRLRLVSLLDAPITDATFVMDEPSSGLHPADIERLLRSLRKLRDSGNTVIIVEHNLQVLAACDHVVELGPGAGDDGGRVLFEGSPRSLTRSDTPTGKALRAGIQLNRRSRPATDVIEVTHARCNNLGDVSVSFPVGALTVVSGVAGSGKSSLASALAQQHPEVTIIDQLPLAASSRSSILTALGLESPIREAFSKISGLTTSWFSANEKGACPLCKGRGTTHVDMAFMDDVQTPCERCGGRKFNETTMAVRLPMGSLNPTIADVLDSGLNQVSELYATQDDVLTVISLLQQVGLGYLTLGRTLNTLSGGELQRIKLVQFLKEHREEQESVLVLDEITTGLHPKDVEQLIQFLRRLSERGATAIAIDHNPGLISQADYNIDLGPGAEAAGGTVVFSGTAQGLADCPESTTGKWLHKLNCSSSGVEQVP | failed |
| MRNLTFLTRCKPLAASVLALMLLGGAAKSFANNDLPDLGTAAVNTFSLEKEMIYGDAYMRVIRSSAPMLNDPVLSQYLTELGNKLVAHATGVKTPFYFFLLQNDEINAFAFFGGHVAVHTGLFLNADNESELASVLGHEITHVTQRHLARSLEAQQKTGPATVAGLLGAILLTIAVPQAGMAALATTQAMATQSKINYTRLHEKEADRIGMQILVDAGFDPNASAEFFGKLASRYRFTTTPPQMLLTHPLPESRISEARDRAQQYPHRYVPDNLNFQLAKARIQVRFSSFSDDAVLSMFEKQLNKQTYGFKEAALYGKALALFRLKKFDESEKIVDELLKIDDNNLFYIDTKTDLLNERKDYAQAIKLLEAQRNLKPTSQVINANLANIYIEAGEPAKAIPLLEDMIFLDKQNQLPYQLLNLAYKKLGNPGMEYFSNAELMALGANYKGAIDQLNFAYRASEGNQLQLARIEARIRQFKQADREMDALKLEHHHHHH | failed |
| MRNSKSLKLTIMGIGIALNIIGAFIALNLRLPIYLDSIGTIMVGFVLGPVYGMATGVLGSVVSGITFDIYSLYFAPVQIFTGFFAGYFYEKGLMKGKKLFLSVFVMTLFVSFTGACLTAYIFGGITSSGSSYIIVILNNLGVNPVVSAFITQFLTDYCDKLVAVLIMLQVVVRLPKNILLRVQNN | failed |
| MRPEHIPNIISTLRIFLVYPVVHLMLAERYTAALALFVVAGVSDAIDGFLAKHYGWQSRLGSYLDPLADKLLLVCCFVAGAWLGLLPVWMAAAVLLRDAVIVTGAIAYYLLLHPFDGQPILASKLNTLLQLAFIVAILFNRGVSELPPFLLDGLLAATLATTIASGAIYVYVWGRNYRLETAQGRR | failed |
| MRPEIAVLDIQGQYRVYTEFYRADAAENTIILINGSLATTASFAQTVRNLHPQFNVVLFDQPYSGKSKPHNRQERLISKETEAHILLELIEHFQADHVMSFSWGGASTLLALAHQPRYVKKAVVSSFSPVINEPMRDYLDRGCQYLAACDRYQVGNLVNDTIGKHLPSLFKRFNYRHVSSLDSHEYAQMHFHINQVLEHDLERALQGARNINIPVLFINGERDEYTTVEDARQFSKHVGRSQFSVIRDAGHFLDMENKTACENTRNVMLGFLK | failed |
| MRPGAPGPLWPLPWGALAWAVGFVSSMGSGNPAPGGVCWLQQGQEATCSLVLQTDVTRAECCASGNIDTAWSNLTHPGNKINLLGFLGLVHCLPCKDSCDGVECGPGKACRMLGGRPRCECAPDCSGLPARLQVCGSDGATYRDECELRAARCRGHPDLSVMYRGRCRKSCEHVVCPRPQSCVVDQTGSAHCVVCRAAPCPVPSSPGQELCGNNNVTYISSCHMRQATCFLGRSIGVRHAGSCAGTPEEPPGGESAEEEENFV | failed |
| MRPLISICMIVKNEAHILRQSLASFRKFTEEIIIVDTGSTDDTKEIAKEFTDFVYDFEWTGNFSDARNFAAKHATGKWILAIDADECLEEESYRKLEKQLKSPIEPIQMAQIISFTGEKGRVTTTNQMARVYKNDGTICFRGVIHEQLEAVDKHAIEAGLAEVKIYHYGYMSEIVEKQDKSDRNLRLLEKEVKNNKNSGFVHFNIGQEMNRLGNKKEALKEFSEAFRLRDNNHYIWAKLSAYHISELLEQEKRYDESLAIIEEAKVIWPNVPEFPLKKANILYVNHQLEDAKEIYKSLLENTAIDYQPIVLYEATNFMPHKMLGTIYLEEKDYTRAMTHFSKAYAENSSDYGVMFQMIMLLSKFHQPKEIFAFMERHNFISSTETGLRLLSMTTQQGYAELSELIVQSLTDVYPPVAEATEVKIATIRNVFPVISESAILFGIKEELIDAADLCLWHYENPQLPIERVMKNSDVGEIYDFIFENGPKISKKRYLFVLERAIALGKGEFADYLLALRNVYHDSINSHIADLFFQYDFADIALDFYNIVDADEVTKQGYINLINYLVDADVLDEALAIAERGIDNFSTDFRFYLWAIKIDTENRANRISEAMDEFPNNRYLAKLLDEVTMLQDTVTNNR | failed |
| MRPVLVLLHRYVGLATALFLFLAGLTGSLLAFHHEIDEWLNPGFYAVGEGGERLSPGSLVQRVESRYPRQLVWYMEYPEAGGHPALLATVPREAGAKVEHDVFYLDPVSGEEVGKRLWAACCFQPANLVPWVLEFHHNLTLPGNWGLYLMGGVAMFWFLDCFVGAWLTLPRGRPFWSKWTTAWKIKRGNAYRFNFDLHRAGGLWLWLLLAPVALSSVALNLPSQVFKPLVSLFSPIEPSVYEARGRLPREQLGETRLDYDRTFQLASVEAARLGIAEPIGELYYSFEYNFFGAGFGDHDDPMGKSWLFFHGSDGRLLGQEVAGQGSWGERFYRLQYPIHGGRIAGLPGRIAIAALGLAIAGLSLTGVYIWWRKRRARHWNGR | failed |
| MRPVYFLSDFGLEDPYVAVVKAVLAERAPGPAVVDLAHALPPQDLRRAAYALFEALPYLPEGAVVLAVVDPGVGTARRAVAALGRWTYVGPDNGLFTLAWLLDPPRRAFLLEPPRPRPKAALPGWAPGEATFHGRDVFAPAAAHLALGLPPEGLGPEVPVETLARLPLALTEGPEGEVLTFDRFGNAITTLLRAPVGGFVEVGGRRVPVRRTFGEVPEGAPVAYLGSAGLLEVAVNRGSAREALGLKEGMPVRLL | not failed |
| MRQAKTDLAEQIFSATDRLMAREGLNQLSMLKLAKEANVAAGTIYLYFKNKDELLEQFAHRVFSMFMATLEKDFDETKPFFEQYRQMWKNIWYFLQENPTILSNLKQYESLPNFKDICKNIKNCRWDLFCHQAQKAGLLAELSEDILFLLSLKTAINLASDAKFIDFDLKPEILESVIERSWRAIQK | not failed |
| MRQFQRLANDGLKSCPPKSGCPMHILFIGYGKTSQRIAKHLFAQGHQITAVSRHPKPQDFVTHLTQDIHQLNLDQCSPIDWVYVLLAPENSDAQSYKHTYLDSVQPIARALATHPVKRVVVVSSTRVYGQQQAGEIVNDQTIAKPVDQQGAYLLEMEEAWQNAFAEHCTIIRPSGIYGNSISRMVKLAKNTTEYPVIHYSNRIHIEDLARFLAFMTQMPCCQPSYLISDGHPYPLHEIILWFQKQLALPQLVLQSDSVTGKRIVPVNFLTTGFELQAEDCFEIYGNLLRSVDT | failed |
| MRQVTVGGMRVDLVSEIASLAFDKSWLFANVTDAVIAENRSWLDHRYIEPATGRFILSHHSYLVRAPRWTAIVDTCCGNHKKRPRVPVWNDLNQPYLENMRALGVAPEEVDFVMCTHLHVDHVGWNTRLLDGRWVPTFPNARYLMGREEYRHFEAAHNAAPKSPVNHGSFEDSVLPVVAAGLAEFVETDHRLFEDRDAALRFAPAPGHTAGNMQIHLNGGHDHAVMSGDVIHHPIQCAAPWLSNAADVDPAAAVATRMALLEELADTPSYLLTGHFPAPTAGRVIRHGDTYRFRFED | failed |
| MRRASQMFDFIGFKEGAMAFLLAFALAGLFTIAFKYVYQWVTPYNEKALIREGNTAAAIALAGALIGYVLPLASALSHTVSLPEFAAWATLAGVIQIAAFTGVRLVALPDVKARIENGEVSVGVYLAGISIAVGLLNAACMTT | failed |
| MRREKTMDTLIRSIMIKSKRKMDAKVAQFGLTTQQARVLGFLNDNAANEIIQKDLQRIFQTRGASITSLIQGLEKKQLISRKPSIRDGREKVVTLTEEGKRIVDEFNESFPREDDKAKKILSADEYKIFIDLLSKIDDNTELEHHHHHH | not failed |
| MRREKTMDTLIRSIMIKSKRKMDAKVAQFGLTTQQARVLGFLNDNAANEIIQKDLQRIFQTRGASITSLIQGLEKKQLISRKPSLRDGREKVVTLTKEGKDIVDEFNASFPREDDKAKKILSADEYKTFIELLSKIDDQTD | failed |
| MRRFGKWLGRVLLAALCAALVIGLWKGEEIKRLMAVNSLFEPDLIVRNFSNMDAAFLHTPVGEAQTPPSALPDGPKMTLPDGTAAWLAARKVTSLVVLSNGQLVHESYHLGTKAEDRRISWSLAKSYISALTGIVLAQGSIASLDDPVTRYAPRLKGGAYDGATVRNVLNMATGVTFDEDYTDYDSDINRMGRVLALGGLMDDFAAGLTQTFARPGSEWQYVSIDTHVLGMVIRAATGRSVVDLMGAHIITPLGLESTPYYLTDGAGVAFALGGLNMTTRDYARFGQMMAQHGAWNGRQIVPKNWVIDSTTASAPTGPDEYGYGYQWWMPRDARPREYMGRGIYGQYLYINEEQGVVVALTAADAAFRDADVQQQNIALFREIADRVQGDANGKR | failed |
| MRRFLLSAAKILVSAALLYLALRKTDFAALAARIDATSFGWLAAAVAATIFQLFVNAVRWRAIGACCEAPLTTGRSMRYAMIGSFFNQTLPSAIGGDAVRVWLLARAGAGWRAATYSVFVDRATGLIALSAIIFVTLPWTLRLIDNADGRLGLMLLDFAALGAGVVFLTLPFLRFGLLDRIWATRHMRGCSEVALKALSSPKSAVILIATSLIIPILAVVIAWCVARAIESPSSFVQLFELVPPIMLITMIPISIAGWGVREASMGLAFGYAGLNPSDGVAVSLLFGAVYFVVGGIGGLIWIMSAEKAAKGDAPIEVPE | failed |
| MRRLLVALCLLTVVLGSTSALAQARNQLGPLCTTETTPADKMVDACTKIIALKVFKGEQLATVYFWRAVGWNKKGDYAKVITDATEAIRLQPSQAVYNLRGSAYYDKGDYDIAIADFDDALKLGPPSGIIFHNRGNAWRGKHDYTKAIADYDMSIKADPKSAFSFQNRGISKEALGDLDGALADINQAIRLDPTLPQPLINRTSIWRAKGDLDRAIADGSEAIRLAEKKPPANIMTPPNSVLISGYTHRALAYEAKGDYARARDDYKATLAIVASDAGSKANQATAKVRLSLVSDAAVPIPRDAPSPTTQPTAAPAPQQTGAASAPSPAPAVRGTRMALIIGNGAYAHVKALPNPPNDARAVAKSLRDIGFTVSEGVDLDRAAMQKMTRDFLRDAARAQVAVVYYAGHGVQVDGRNYLIPVDVELKPGTAMTEAMIDMDTIMAGLDDQVRTNILIFDACRNNPMAQQVASAAANRGIEGASGLAAPTSLGAGATLGAGTLIAFATAPGQVALDGDGANSPFSAALSRHIGTLGLEVQQMLTRVRAEVVSTTKNKQVPWSNSSLLGEVYLAEK | failed |
